{"source": "paper PMC7505474", "about": "(2020)", "target": "Recombinant TLR4 protein (R&D Systems 478-TR-050) (UniProt O00206 24-631)", "sequence (O00206 24-631)": "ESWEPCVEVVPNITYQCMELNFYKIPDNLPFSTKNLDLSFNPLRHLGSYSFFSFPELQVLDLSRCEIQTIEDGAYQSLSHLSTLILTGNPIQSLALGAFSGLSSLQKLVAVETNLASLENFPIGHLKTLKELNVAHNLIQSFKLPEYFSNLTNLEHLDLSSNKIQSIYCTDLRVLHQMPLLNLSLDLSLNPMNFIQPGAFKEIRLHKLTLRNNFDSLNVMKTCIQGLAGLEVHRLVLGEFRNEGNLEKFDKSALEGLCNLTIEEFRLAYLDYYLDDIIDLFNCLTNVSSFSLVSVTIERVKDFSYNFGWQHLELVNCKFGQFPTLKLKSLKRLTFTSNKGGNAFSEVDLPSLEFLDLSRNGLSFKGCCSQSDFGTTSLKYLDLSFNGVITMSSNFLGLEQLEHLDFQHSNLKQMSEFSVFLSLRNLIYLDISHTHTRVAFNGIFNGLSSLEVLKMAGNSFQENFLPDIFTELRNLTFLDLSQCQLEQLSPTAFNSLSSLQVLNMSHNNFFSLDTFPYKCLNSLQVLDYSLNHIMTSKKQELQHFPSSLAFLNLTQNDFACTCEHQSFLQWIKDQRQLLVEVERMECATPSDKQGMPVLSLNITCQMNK", "assay": "SPR"}
{"binder": "human recombinant IFI16 protein (natural protein) MGKKYKNIVLLKGLEVINDYHFRMVKSLLSNDLKLNLKMREEYDKIQIADLMEEKFRGDAGLGKLIKIFEDIPTLEDLAETLKKEKLKVKGPALSRKRKKEVDATSPAPSTSSTVKTEGAEATPGAQKRKKSTKEKAGPKGSKVSEEQTQPPSPAGAGMSTAMGRSPSPKTSLSAPPNSSSTENPKTVAKCQVTPRRNVLQKRPVIVKVLSTTKPFEYETPEMEKKIMFHATVATQTQFFHVKVLNTSLKEKFNGKKIIIISDYLEYDSLLEVNEESTVSEAGPNQTFEVPNKIINRAKETLKIDILHKQASGNIVYGVFMLHKKTVNQKTTIYEIQDDRGKMDVVGTGQCHNIPCEEGDKLQLFCFRLRKKNQMSKLISEMHSFIQIKKKTNPRNNDPKSMKLPQEQRQLPYPSEASTTFPESHLRTPQMPPTTPSSSFFTKKSEDTISKMNDFMRMQILKEGSHFPGPFMTSIGPAESHPHTPQMPPSTPSSSFLTTLKPRLKTEPEEVSIEDSAQSDLKEVMVLNATESFVYEPKEQKKMFHATVATENEVFRVKVFNIDLKEKFTPKKIIAIANYVCRNGFLEVYPFTLVADVNADRNMEIPKGLIRSASVTPKINQLCSQTKGSFVNGVFEVHKKNVRGEFTYYEIQDNTGKMEVVVHGRLTTINCEEGDKLKLTCFELAPKSGNTGELRSVIHSHIKVIKTRKNKKDILNPDSSMETSPDFFF", "values": [{"measurement": "koff", "result": 0.00576, "unit": "s⁻¹"}]}
